One molecule from PMC549569 can be followed below.

This data set deals with αCP1-KH3 (third KH domain of poly(C)-binding protein 1, PCBP1/hnRNP E1) (UniProt Q15365 279-356). The data set can be described thus: SPR.
Sequence of αCP1-KH3 (third KH domain of poly(C)-binding protein 1, PCBP1/hnRNP E1) (Q15365 279-356): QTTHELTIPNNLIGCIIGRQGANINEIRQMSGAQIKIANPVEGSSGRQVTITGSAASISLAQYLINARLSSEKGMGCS

With CUCUCCUUUCUUUUUCUUCUUCCCUCCCUA (ssRNA) [AR mRNA 3'-UTR 30 nt UC-rich RNA (nt 3296-3325)], the Kd was determined as 4.37 µM.
